Results on eleven molecules are retold here after US20210347908A1 (ELPISCIENCE SUZHOU BIOPHARMA, published 2021).

Changes are numbered by the printed parent chain.

B1: Antibody 060 (hybridoma antibody) (antibody, V domains shown)
VH: QVQLKESGPGLVAPSESLSITCTVSGFSLTNYDISWIRQSPGKGLEWLGVIWTGGDTNFNSAFMSRLSISKDKSKSQVFLKLNSLQTDDTAIYYCVRVQYFGGSYGPMDYWGQGISVTVSS
VL: DIQMTQASSYLSVSLGGRVTITCEASDHINDWLAWYQQTPGNAPRLLISGATSLETGVPSRFSGSGSGKDYTLSITSLQTEDIATYYCQQYWNTPLTFGAGTRLELK
notes: mouse hybridoma antibody
B2: Antibody 001 (hybridoma antibody) (antibody, V domains shown)
VH: EVKLEESGGGLVQPGGSMKLSCVASGFTFRNYWMNWVRQSPERGLEWIAEISLKSNTYATHYAESVKGRFAISRDGSKSSFYLQMNDLRAEDTGIYYCTTFTKVVADWHLDVWGAGTTVTVSS
VL: DVLMTQTPLSLPVSLGDQASISCRSSQNIVHSNGNTYLEWYLQKPGQSPKLLIYKVSNRFSGVPDRFSGSGSGTDFTLRISRVEAEDLGVYYCFQGSHVPFTFGSGTKLEIK
notes: mouse hybridoma antibody
B3: Antibody 002 (hybridoma antibody) (antibody, V domains shown)
VH: B2 VH with K19I, S52T, G76D, A90P
VL: B2 VL with V56I, K112Q
notes: mouse hybridoma antibody
B4: Antibody 032 (hybridoma antibody) (antibody, V domains shown)
VH: B2 VH with K3R, A24V, S52T, G76D, A90P
VL: B2 VL with S14N
notes: mouse hybridoma antibody
B5: Antibody 022 (hybridoma antibody) (antibody, V domains shown)
VH: QIQLVQSGPELKKPGETVKISCKASGYTFTDYAMHWVKQAPGKGLKWMGWKNTETGESTYAEDFKGRFAFFLETSASTAYLQINNVKNEDTATYFCARGGYGSNYVMDYWGQGTSVIVSS
VL: DIQMTQSSSSFSVSLGDRVTITCKASEDIYNRLAWYQQKPGNAPRLLISGATSLETGVPSRFSGSGSGKDYTLSITSLQTEDVATYYCQQYWNSPRTFGGGTKLEIK
notes: mouse hybridoma antibody
B6: Antibody 074 (hybridoma antibody) (antibody, V domains shown)
VH: QVQLQQPRAELVKPGASVMLSCKASGYTFSSYWIHWVRQGPGQGLEWIGLIHPNSGNTDCSETFKNKATLTVDTSSSTAYMQLSSLASEDSAVYYCARDGASYDWFVHWGQGTLVTVSA
VL: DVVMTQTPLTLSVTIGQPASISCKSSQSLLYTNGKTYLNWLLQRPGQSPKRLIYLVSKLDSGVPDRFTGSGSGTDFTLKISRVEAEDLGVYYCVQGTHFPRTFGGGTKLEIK
notes: mouse hybridoma antibody
B7: Antibody 050 (hybridoma antibody) (antibody, V domains shown)
VH: QIQLVQSGPELKKPGETVKISCKASGYTFTHYSMHWVKQAPGKGLKWMGWINTETAEPTYVDDFKGRFAFSLEASASTAFFQINNLKNEDTATYFCARGGLRQGDYWGQGTTLTVSS
VL: QIVLTQSPPIMSASPGEKVTLTCSATSSVSASYLYWFQQKPGSSPKLWIYSTSNLASGVPARFSGSGSGTSYSLTISNMEPADAASYFCHQWSSYPYTFGGGTKLEIK
notes: mouse hybridoma antibody
B8: Antibody 035 (hybridoma antibody) (antibody, V domains shown)
VH: QIQLVQSGPELRKPGETVKISCKASGYSFTNYAMNWVKQAPGKVLKWMGFINTYTGEPTYADDFKGRFAFSLETSASTAYLQINNLKNEDTATYFCTRTRGYYDFDGGAFDYWGQGTSLTVSS
VL: DIVMTQSQKFMSTSIGDRVSVTCKASQNVGTHLAWYQQKPGQSPKALIFSASYRYIGVPDRFTGSGSGTDFTLTITNVQSEDLAEYFCQQYNTYPLTFGAGTKLELK
notes: mouse hybridoma antibody
B9: reference antibody HEFLB (antibody, V domains shown)
VH: EVQLVQSGAEVKKPGESLRISCKASGYSFTSYWVHWVRQMPGKGLEWMGNIDPSDSDTHYSPSFQGHVTLSVDKSISTAYLQLSSLKASDTAMYYCVRGGTGTLAYFAYWGQGTLVTVSS
VL: DVVMTQSPLSLPVTLGQPASISCRSSQSLVHSYGNTYLYWFQQRPGQSPRLLIYRVSNRFSGVPDRFSGSGSGTDFTLKISRVEAEDVGVYYCFQGTHVPYTFGGGTKVEIK
B10: reference antibody 29-AM4-5 (antibody, V domains shown)
VH: EVQLVESGGGLVQPGGSLRLSCAASGFNISYYFIHWVRQAPGKGLEWVASVYSSFGYTYYADSVKGRFTISADTSKNTAYLQMNSLRAEDTAVYYCARFTFPGLFDGFFGAYLGSLDYWGQGTLVTVSS
VL: DIQMTQSPSSLSASVGDRVTITCRASQSVSSAVAWYQQKPGKAPKLLIYSASSLYSGVPSRFSGSRSGTDFTLTISSLQPEDFATYYCQQAVNWVGALVTFGQGTKVEIK
B11: chimeric antibody 060c (antibody, V domains shown)
VH: B1 VH
VL: B1 VL

T4 sequence (P78324 other isoform, or with tags, fused parts or gaps): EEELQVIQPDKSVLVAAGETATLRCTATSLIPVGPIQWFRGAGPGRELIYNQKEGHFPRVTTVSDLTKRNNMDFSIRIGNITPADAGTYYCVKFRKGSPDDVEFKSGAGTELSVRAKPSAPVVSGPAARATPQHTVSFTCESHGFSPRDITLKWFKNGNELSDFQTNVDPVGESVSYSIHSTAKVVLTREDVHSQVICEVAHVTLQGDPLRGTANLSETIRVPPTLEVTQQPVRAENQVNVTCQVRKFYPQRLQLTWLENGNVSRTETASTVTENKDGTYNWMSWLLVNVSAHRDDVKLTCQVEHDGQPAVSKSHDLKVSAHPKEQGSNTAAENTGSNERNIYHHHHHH

For one assay, the target named is T1, full length C57BL/6 mouse SIRPα stably expressed on CHOK1 cells (mouse (C57BL/6), UniProt P97797 32-513).
T1 construct: whole, on cells; also called CHOK1-C57BL/6 mouse SIRPα-2.22 cells
T1 sequence (looked up): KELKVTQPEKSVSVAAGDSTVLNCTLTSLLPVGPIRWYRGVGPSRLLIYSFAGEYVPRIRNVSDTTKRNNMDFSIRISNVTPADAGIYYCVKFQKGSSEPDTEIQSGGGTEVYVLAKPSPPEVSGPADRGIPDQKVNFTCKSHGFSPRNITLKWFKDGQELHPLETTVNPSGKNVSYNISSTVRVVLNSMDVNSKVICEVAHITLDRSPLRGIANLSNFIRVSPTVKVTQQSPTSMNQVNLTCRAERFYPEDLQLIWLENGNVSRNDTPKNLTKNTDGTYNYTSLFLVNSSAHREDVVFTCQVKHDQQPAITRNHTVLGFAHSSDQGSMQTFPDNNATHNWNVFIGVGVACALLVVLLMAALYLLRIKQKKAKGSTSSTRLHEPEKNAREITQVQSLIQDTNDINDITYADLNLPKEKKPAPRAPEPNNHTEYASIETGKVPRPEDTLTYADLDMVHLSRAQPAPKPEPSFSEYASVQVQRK
As to the kind of experiment: FACS on CHOK1 cells.
Consider B1, for which the binding result was “no binding (tested: 100 nM)”.

Turning to B2, the binding result is reported as “no binding (tested: 100 nM)”.

Consider B3, for which the binding result was “no binding (tested: 100 nM)”.

Consider B4, for which the binding result is recorded as “no binding (tested: 100 nM)”.

With B5, the binding result is reported as “no binding (tested: 100 nM)”.

As for B6, the binding result is on record as “no binding (tested: 100 nM)”.

Take B7: the binding result is recorded as “no binding (tested: 100 nM)”.

For a further assay, the target named is T2, full length cyno SIRPα stably expressed on CHOK1 cells (cynomolgus monkey, UniProt A0A2K5VYQ9 31-507).
T2 construct: whole, on cells; also called CHOK1-cyno SIRPα-2A2 cells; CHOK1-cyno SIRPα
T2 sequence: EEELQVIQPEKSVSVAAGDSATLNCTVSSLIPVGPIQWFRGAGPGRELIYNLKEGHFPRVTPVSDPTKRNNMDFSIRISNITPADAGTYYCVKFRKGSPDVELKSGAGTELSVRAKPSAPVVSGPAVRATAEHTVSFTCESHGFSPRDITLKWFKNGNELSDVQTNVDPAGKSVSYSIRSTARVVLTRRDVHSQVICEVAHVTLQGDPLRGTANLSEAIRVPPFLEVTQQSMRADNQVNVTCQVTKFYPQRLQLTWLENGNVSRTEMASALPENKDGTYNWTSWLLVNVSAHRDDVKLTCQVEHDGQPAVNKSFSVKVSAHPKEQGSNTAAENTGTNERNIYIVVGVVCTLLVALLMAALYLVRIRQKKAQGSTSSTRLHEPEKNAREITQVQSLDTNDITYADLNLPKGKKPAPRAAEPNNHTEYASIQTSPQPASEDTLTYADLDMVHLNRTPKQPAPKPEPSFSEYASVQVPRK
The assay is described as follows: FACS on CHOK1 cells.
Consider B1, for which the binding result is on record as “no binding (tested: 10 nM)”.

For B8, the “MFI at 10 nM” value was 8310 MFI.

In the case of B2, the “MFI at 10 nM” value was found to be 8030 MFI.

As for B3, the “MFI at 10 nM” value worked out at 7540 MFI.

For the molecule B4, the “MFI at 10 nM” value worked out at 6860 MFI.

Take B5: the “MFI at 10 nM” value was 6430 MFI.

For the molecule B9, the binding result is “no binding (tested: 10 nM)”.

As for B6, the “MFI at 10 nM” value is 14300 MFI.

Turning to B7, the “MFI at 10 nM” value is 13600 MFI.

Regarding B10, the “MFI at 10 nM” value came to 37900 MFI.

The target of another assay is T3, biotin labeled soluble human SIRPα v1 ECD recombinant protein (human, UniProt P78324 31-373, biotin labeled).
T3 construct: extracellular domain
T3 sequence (P78324 31-373): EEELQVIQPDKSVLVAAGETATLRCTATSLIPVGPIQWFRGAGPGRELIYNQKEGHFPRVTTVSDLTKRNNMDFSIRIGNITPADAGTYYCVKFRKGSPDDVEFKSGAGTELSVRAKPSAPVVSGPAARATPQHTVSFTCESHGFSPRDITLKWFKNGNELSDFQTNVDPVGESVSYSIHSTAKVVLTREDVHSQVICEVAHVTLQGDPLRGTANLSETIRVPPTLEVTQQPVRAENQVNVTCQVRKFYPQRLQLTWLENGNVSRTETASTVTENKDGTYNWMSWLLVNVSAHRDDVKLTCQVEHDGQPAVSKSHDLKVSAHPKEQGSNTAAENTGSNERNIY
The assay is described as follows: competitive ELISA; competitor 032. How it is done:
(§1) Competitive ELISA assay was used for epitope binning of 9 functional antibodies. Briefly excessive competitor antibody and biotin labeled soluble human SIRPα v1 ECD recombinant protein were co-incubated with ELISA microplate coated antibody. After washing, HRP-SA was added and incubated at 37° C. for 1 hour. Then, […] of TMB solution (Biotechnology) was added. After incubation for 15 minutes at room temperature, the reaction was stopped by the addition of […] of 1N HCl. OD 450 nm was read. Competition ratio was calculated. The antibodies that can compete each other for binding to SIRPα have the similar binding epitope.
Take B1: the “% Competition” value worked out at 4%.

Turning to B8, the “% Competition” value was 89%.

B2: the “% Competition” value was determined as 96%.

With B3, the “% Competition” value was 92%.

As to B4, the “% Competition” value was 94%.

As to B5, the “% Competition” value turned out to be 4%.

As to B9, the “% Competition” value was 91%.

In the case of B6, the “% Competition” value was 34%.

B7: the “% Competition” value was 8%.

As for B10, the “% Competition” value was 97%.

A further assay concerns the target T4, 6×His tagged human SIRPα v1 ECD recombinant protein (human, UniProt P78324 31-373).
T4 construct: extracellular domain; bought; also called hSIRPα V1 (SPR antigen)
As to the kind of experiment: SPR (Biacore), antibody captured. As for the experimental part:
(§2) Anti-SIRPα chimeric antibodies were characterized for binding affinity against human SIRPα v1, human SIRPα v2 and C57BL/6 mouse SIRPα using Biacore (GE). Briefly the antibodies to be tested were captured to CM5 chip (GE) using Human Antibody Capture Kit (GE). The antigens of 6×His tagged human SIRPα v1, human SIRPα v2 and C57BL/6 mouse SIRPα ECD recombinant proteins were serially diluted for multiple doses and injected at 30 μl/min for 180 s. Buffer flow was maintained for dissociation of 400 s. 3 M MgCl₂ was used for chip regeneration. The association and dissociation curves were fit with 1:1 binding model, and the Ka/Kd/KD values for each antibody were calculated.
Background: Surface plasmon resonance follows binding to a sensor surface in real time, without labels.
B11: the equilibrium dissociation constant (Kd) (usually the free concentration of one partner at which half of the binding sites on the other are occupied at equilibrium, for simple one-to-one binding) is 1.49 nM; the off-rate constant (koff) (in general, the first-order rate constant of dissociation) worked out at 0.000141 s⁻¹; the on-rate (kon) (commonly a measure of how fast the partners come together) is 94400 M⁻¹ s⁻¹.

In another assay the target is T5, 6×His tagged C57BL/6 mouse SIRPα ECD recombinant protein (mouse (C57BL/6), UniProt P97797 32-373).
T5 construct: extracellular domain; bought; also called mSIRPα (C57BL/6); mouse SIRPα (C57BL/6) ECD
T5 sequence: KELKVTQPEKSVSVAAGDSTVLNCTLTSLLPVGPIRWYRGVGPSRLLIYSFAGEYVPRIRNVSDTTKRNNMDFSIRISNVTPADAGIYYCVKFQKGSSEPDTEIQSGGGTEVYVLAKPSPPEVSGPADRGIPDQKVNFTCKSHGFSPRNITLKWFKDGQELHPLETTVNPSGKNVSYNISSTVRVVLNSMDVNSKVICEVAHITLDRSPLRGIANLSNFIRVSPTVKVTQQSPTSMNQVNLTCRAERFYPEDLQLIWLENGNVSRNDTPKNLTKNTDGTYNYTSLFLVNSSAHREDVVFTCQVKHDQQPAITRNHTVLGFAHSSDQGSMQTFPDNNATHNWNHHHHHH
As to the kind of experiment: SPR (Biacore), antibody captured. How it is done: as §2
As for B11, the binding result is “no binding”.

For another assay, the target named is T3, biotin labeled soluble human SIRPα v1 …. As to the kind of experiment: competitive ELISA; competitor 055. As for the experimental part:
as §1
In general terms: An ELISA detects its analyte on a solid surface through an enzyme-linked reagent.
Consider B1, for which the “% Competition” value was 7%.

B8: the “% Competition” value was -1%.

On to B2, for which the “% Competition” value came to 4%.

Take B3: the “% Competition” value is -16%.

On to B4, for which the “% Competition” value was determined as 3%.

Turning to B5, the “% Competition” value was 1%.

As for B9, the “% Competition” value is 1%.

As for B6, the “% Competition” value is -17%.

On to B7, for which the “% Competition” value was -16%.

Take B10: the “% Competition” value came out at 0%.

A further assay deals with T4, 6×His tagged human SIRPα v1 ECD …. As to the kind of experiment: SPR (Biacore). How it is done:
as §2
On to B11, for which the equilibrium dissociation constant (Kd) stood at 1.49 nM.
